These results are taken from paper doi:10.1101/2025.06.13.659407, “Scavenger Receptor class F member 2 is an intracellular receptor for Hepatitis B virus” (bioRxiv, 2025).

In this assay the target is biotinylated preS1 peptide 79–108 carrying 89D and 90K (hepatitis B virus (residues numbered …, biotin (position not stated for this peptide))). As to the kind of experiment: pull-down; 2 µM biotinylated preS1 peptide on Dynabeads MyOne Streptavidin T1, incubated with 2 µg purified protein 1 h at 37°C, washed with PBS 0.01% Tween 20, Western blot (anti-HA or anti-human IgG1); the paper calls it immunoprecipitation (IP-Western). The conditions noted are these: both partners purified. A general note: A western blot detects proteins with antibodies after separation by electrophoresis.

B1: sEGF4–6-hFc (soluble fusion protein comprising SCARF2's EGF4–6 domains, with an N-terminal HA tag and a C-terminal human IgG1 Fc tag) (Fc fusion)
chain: GSYPYDVPDYAGSSACYCSATSRCDPQTGACLCHAGWWGRSCNNQCACNSSPCEQQSGRCQCRERTFGARCDRYCQCFRGRCHPVDGTCACEPGYRGKYCR
Regarding B1, the “fold efficiency of precipitation against preS1 79–108 QT and QS peptides” value was around 2 fold.
